Paper PMC12102759 (2025)

B1: ICA1L peptide 451-466 (Islet cell autoantigen 1-like protein), 16-mer library wild type / NSP16 (ORF1ab Nsp16, residues 6799-7088) (parent complex)
chain 1: QDMSAWFNLFADLDPL
chain 2: SSQAWQPGVAMPNLYKMQRMLLEKCDLQNYGDSATLPKGIMMNVAKYTQLCQYLNTLTLAVPYNMRVIHFGAGSDKGVAPGTAVLRQWLPTGTLLVDSDLNDFVSDADSTLIGDCATVHTANKWDLIISDMYDPKTKNVTKENDSKEGFFTYICGFIQQKLALGGSVAIKITEHSWNADLYKLMGHFAWWTAFVTNVNASSSEAFLIGCNYLGKPREQIDGYVMHANYIFWRNTNPIQLSSYSLFDMSKFPLKLRGTAVMSLKEGQINDMILSLLSKGRLIIRENNRVVI
B2: NOTCH4 peptide 1606-1621 (Neurogenic locus notch homolog protein 4), 16-mer library wild type / NSP9 (ORF1ab Nsp9, residues 4141-4253) (parent complex)
chain 1: QGAWLGAPEPWEPLLD
chain 2: NNELSPVALRQMSCAAGTTQTACTDDNALAYYNTTKGGRFVLALLSDLQDLKWARFPKSDGTGTIYTELEPPCRFVTDTPKGPKVKYLYFIKGLNNLNRGMVLGSLAATVRLQ

Variants of: B1
Experiment: bait immobilised on MaxiSorp plates (10 µg), library pre-cleared on GST, 2 h binding at 4 °C, five washes; one round per day, days 1-4; value from days 2 and 3
chain 1 N8T was tested, and the screen value was 0.000466 average fractional NGS count over selection days 2 and 3 (reads of this peptide / all reads for the bait, averaged over ….
For chain 1 N8G, the screen value was 0.000503 average fractional NGS count over selection days 2 and 3 (reads of this peptide / all reads for the bait, averaged over ….
With chain 1 N8H the screen value was 0.00331 average fractional NGS count over selection days 2 and 3 (reads of this peptide / all reads for the bait, averaged over ….
chain 1 D12H was tested, and the screen value was 0.0543 average fractional NGS count over selection days 2 and 3 (reads of this peptide / all reads for the bait, averaged over ….
In the case of chain 1 D12W, the screen value is reported as 0.00015 average fractional NGS count over selection days 2 and 3 (reads of this peptide / all reads for the bait, averaged over ….
chain 1 D12Y was tested, and the screen value was 0.000481 average fractional NGS count over selection days 2 and 3 (reads of this peptide / all reads for the bait, averaged over ….
chain 1 F7L was tested, and the screen value was 0.000815 average fractional NGS count over selection days 2 and 3 (reads of this peptide / all reads for the bait, averaged over ….
For chain 1 F7W, the screen value was 0.000183 average fractional NGS count over selection days 2 and 3 (reads of this peptide / all reads for the bait, averaged over ….
With chain 1 S4T the screen value was 0.00139 average fractional NGS count over selection days 2 and 3 (reads of this peptide / all reads for the bait, averaged over ….
With chain 1 D2S the screen value was 0.000218 average fractional NGS count over selection days 2 and 3 (reads of this peptide / all reads for the bait, averaged over ….
For chain 1 D14P, the screen value was 0.000203 average fractional NGS count over selection days 2 and 3 (reads of this peptide / all reads for the bait, averaged over ….
For chain 1 D14E, the screen value was 0.00108 average fractional NGS count over selection days 2 and 3 (reads of this peptide / all reads for the bait, averaged over ….
In the case of chain 1 P15T, the screen value is reported as 0.00148 average fractional NGS count over selection days 2 and 3 (reads of this peptide / all reads for the bait, averaged over ….
With chain 1 P15V the screen value was 0.000993 average fractional NGS count over selection days 2 and 3 (reads of this peptide / all reads for the bait, averaged over ….
chain 1 P15N was tested, and the screen value was 0.000142 average fractional NGS count over selection days 2 and 3 (reads of this peptide / all reads for the bait, averaged over ….
For chain 1 P15G, the screen value was 0.000662 average fractional NGS count over selection days 2 and 3 (reads of this peptide / all reads for the bait, averaged over ….
For chain 1 P15Q, the screen value was 0.000173 average fractional NGS count over selection days 2 and 3 (reads of this peptide / all reads for the bait, averaged over ….
With chain 1 M3I the screen value was 0.00221 average fractional NGS count over selection days 2 and 3 (reads of this peptide / all reads for the bait, averaged over ….
In the case of chain 1 A11G, the screen value is reported as 9.42e-05 average fractional NGS count over selection days 2 and 3 (reads of this peptide / all reads for the bait, averaged over ….
In the case of chain 1 A5T, the screen value is reported as 0.00049 average fractional NGS count over selection days 2 and 3 (reads of this peptide / all reads for the bait, averaged over ….
In the case of chain 1 L9M, the screen value is reported as 0.111 average fractional NGS count over selection days 2 and 3 (reads of this peptide / all reads for the bait, averaged over ….
For chain 1 L16R, the screen value was 0.000401 average fractional NGS count over selection days 2 and 3 (reads of this peptide / all reads for the bait, averaged over ….
chain 1 L16V was tested, and the screen value was 0.000224 average fractional NGS count over selection days 2 and 3 (reads of this peptide / all reads for the bait, averaged over ….
With chain 1 L16M the screen value was 0.0149 average fractional NGS count over selection days 2 and 3 (reads of this peptide / all reads for the bait, averaged over ….
In the case of chain 1 L16Y, the screen value is reported as 0.00657 average fractional NGS count over selection days 2 and 3 (reads of this peptide / all reads for the bait, averaged over ….
With chain 1 L16W the screen value was 0.000423 average fractional NGS count over selection days 2 and 3 (reads of this peptide / all reads for the bait, averaged over ….
chain 1 L16T was tested, and the screen value was 0.000115 average fractional NGS count over selection days 2 and 3 (reads of this peptide / all reads for the bait, averaged over ….
chain 1 L13F was tested, and the screen value was 8.42e-05 average fractional NGS count over selection days 2 and 3 (reads of this peptide / all reads for the bait, averaged over ….
With chain 1 L13M the screen value was 0.00451 average fractional NGS count over selection days 2 and 3 (reads of this peptide / all reads for the bait, averaged over ….
chain 1 L13W was tested, and the screen value was 0.0001 average fractional NGS count over selection days 2 and 3 (reads of this peptide / all reads for the bait, averaged over ….

Variants of: B2
Experiment: as above
chain 1 A3W was tested, and the screen value was 0.000101 average fractional NGS count over selection days 2 and 3 (reads of this peptide / all reads for the bait, averaged over ….
chain 1 A3I was tested, and the screen value was 0.00198 average fractional NGS count over selection days 2 and 3 (reads of this peptide / all reads for the bait, averaged over ….
For chain 1 A3T, the screen value was 0.00113 average fractional NGS count over selection days 2 and 3 (reads of this peptide / all reads for the bait, averaged over ….
For chain 1 A3Y, the screen value was 0.00272 average fractional NGS count over selection days 2 and 3 (reads of this peptide / all reads for the bait, averaged over ….
chain 1 A3M was tested, and the screen value was 0.0101 average fractional NGS count over selection days 2 and 3 (reads of this peptide / all reads for the bait, averaged over ….
With chain 1 A3Q the screen value was 0.000713 average fractional NGS count over selection days 2 and 3 (reads of this peptide / all reads for the bait, averaged over ….
In the case of chain 1 P8R, the screen value is reported as 8.2e-05 average fractional NGS count over selection days 2 and 3 (reads of this peptide / all reads for the bait, averaged over ….
